What all share (assay): AUC
Assay [1] concerns the target SSBΔ120-166 (E. coli).
The target of assay [2] is SSBΔ130-166 (E. coli).
Assay [3] deals with SSBΔ151-166 (E. coli).
The target of assay [4] is SSBΔC8 (E. coli).

As for SSBΔ120-166 (natural protein), the stoichiometry N in assay [1] was 4.

Consider SSBΔ130-166 (natural protein), for which the stoichiometry N in assay [2] was 4.

SSBΔ151-166 (natural protein) showed a stoichiometry N in assay [3] of 4.

Substance SSBΔC8 (domain or fragment) had a stoichiometry N in assay [4] of 4.

Source of the values: publication PMC4419694.
